Drawing on publication PMC10484726, “Archaeal Hel308 suppresses recombination through a catalytic switch that controls DNA annealing”, this text covers Kd for one molecule.

In this data set the target is T1, Mth-Hel308 wild type (Methanothermobacter thermautotrophicus, UniProt O26901 1-690).
T1 sequence: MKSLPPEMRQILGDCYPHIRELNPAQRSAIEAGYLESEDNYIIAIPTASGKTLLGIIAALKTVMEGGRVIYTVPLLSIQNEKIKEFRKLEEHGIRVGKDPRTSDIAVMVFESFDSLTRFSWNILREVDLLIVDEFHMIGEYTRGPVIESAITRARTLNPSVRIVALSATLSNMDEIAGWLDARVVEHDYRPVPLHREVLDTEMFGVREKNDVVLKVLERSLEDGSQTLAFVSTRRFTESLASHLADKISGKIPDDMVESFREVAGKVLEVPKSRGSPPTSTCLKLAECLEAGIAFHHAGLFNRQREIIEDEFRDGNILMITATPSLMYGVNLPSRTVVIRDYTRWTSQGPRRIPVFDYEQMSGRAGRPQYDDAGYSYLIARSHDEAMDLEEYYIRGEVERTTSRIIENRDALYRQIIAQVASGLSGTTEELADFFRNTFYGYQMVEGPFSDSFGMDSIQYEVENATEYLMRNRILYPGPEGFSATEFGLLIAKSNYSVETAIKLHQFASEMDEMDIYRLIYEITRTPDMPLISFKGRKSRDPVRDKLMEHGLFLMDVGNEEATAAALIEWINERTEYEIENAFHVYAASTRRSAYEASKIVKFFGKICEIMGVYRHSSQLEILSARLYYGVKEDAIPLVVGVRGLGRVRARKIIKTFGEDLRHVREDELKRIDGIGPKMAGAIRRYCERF
The experiment in a line: EMSA; 5 mM EDTA; 25 nM DNA; EMSA: 20 mM Tris-HCl pH 7.5, 100 ug/ml BSA, 7% glycerol, 25 mM DTT, 5 mM EDTA, 25 nM Cy5-DNA; 5% TBE gel; no added salt stated; 37 C 10 min stated for duplex DNA reactions. The conditions noted are these: protein: recombinant; tags: N-terminal His6; label: Cy5 (end label); fork. For orientation: In EMSA bound probe runs differently from free probe, usually more slowly.

B1: forked DNA substrate (dsDNA)
DNA 1: GTCGGATCCTCTAGACAGCTCCATGATCACTGGCACTGGTAGAATTCGGC
DNA 2: CAACGTCATAGACGATTACATTGCTACATGGAGCTGTCTAGAGGATCCGA
For the molecule B1, the Kd is 68.2 nM.

For orientation: Kd means a measure of binding affinity in units of concentration.
